Test [1] has as its target T1, full-length ECD of cynomolgus monkey TIGIT (His-tagged) (cynomolgus monkey).
T1 construct: also called His-tagged cynomolgus monkey TIGIT; cyno TIGIT extracellular domain
Description: SPR Biacore T200, Protein A capture, 1:1 model, experiment #1. As to the method: Briefly, surface plasmon resonance experiments were performed using a Biacore T200 instrument, and the association rate (kₐ), dissociation rate (kd), and dissociation constant (KD) were calculated from each experiment using a 1:1 binding model with Biacore T200 Evaluation Software.
Multispecific molecules were captured using a 30-sec injection at a flow rate of 10 μl/min to reach about 350 resonance units (RUs). […] The sensor chip was regenerated between cycles with two 30-sec injections of 10 mM glycine, pH 1.5. Sensorgrams were evaluated and fit to a simple Langmuir 1:1 interaction model using the global data analysis option of BIAevaluation 3.0 software. Data quality was verified by visually inspecting deviations and curve fitting, and by evaluating the parameters of Rₘₐₓ, Chi2, and Tc.
A general note: In SPR one partner is held on a chip, and binding of the other changes the refractive index at the surface.

The target in test [2] is T2, wild type full-length human CD96 isoform 1 expressed on CHO cells (human, UniProt P40200 22-585).
T2 construct: whole, on cells; also called human CD96-CHO (isoform 1)
T2 sequence (looked up): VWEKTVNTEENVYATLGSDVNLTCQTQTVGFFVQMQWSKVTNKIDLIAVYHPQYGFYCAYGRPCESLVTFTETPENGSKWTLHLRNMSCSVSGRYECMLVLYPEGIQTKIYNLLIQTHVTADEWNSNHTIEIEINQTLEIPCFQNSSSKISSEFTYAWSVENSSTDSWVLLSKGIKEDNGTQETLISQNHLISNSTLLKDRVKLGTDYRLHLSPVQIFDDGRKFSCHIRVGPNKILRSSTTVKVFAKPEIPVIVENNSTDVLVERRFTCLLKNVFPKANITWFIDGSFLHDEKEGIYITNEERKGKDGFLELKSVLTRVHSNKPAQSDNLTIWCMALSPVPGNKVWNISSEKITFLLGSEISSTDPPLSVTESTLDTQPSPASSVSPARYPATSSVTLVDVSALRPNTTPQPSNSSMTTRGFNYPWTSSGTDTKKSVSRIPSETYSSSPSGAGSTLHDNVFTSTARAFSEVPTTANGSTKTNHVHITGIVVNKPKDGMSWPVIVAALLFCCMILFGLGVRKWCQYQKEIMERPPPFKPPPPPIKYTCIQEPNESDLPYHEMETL
Kind of test: flow cytometry, human CD96 (isoform 1) CHO cells, 1 experiment. As to the method: (§1) For the antibody binding assay, a frozen aliquot of human CD96-CHO cells (isoform 1 or isoform 2) was thawed at 37° C. and then transferred to a tube containing DPBS supplemented with 0.5% Bovine Serum Albumin and 0.05% Sodium Azide (FACS Buffer). Cells were centrifuged at 300 g for five minutes. The supernatant was discarded, and cells resuspended in FACS buffer were seeded in a 96-well U-bottom tissue culture plate at a density of 2×10⁵ cells per well in 50 μL. In a separate microplate, a 2× concentrated intermediate stock of each antibody was prepared. Antibodies were serially diluted 1-to-3 in FACS buffer. A total of 11 working dilutions ranging from 60 μg/mL to 0.001 μg/mL were prepared. Fifty microlitres of each dilution were then transferred to the microplate containing human CD96-CHO cells. The cells were then incubated for 45 minutes at 4° C. […] After a 30-minute incubation on ice, the cells were washed twice with cold FACS Buffer, and the cells were analyzed by flow cytometry (BD LSR Fortessa Flow Cytometer). The data were analyzed using the FlowJo software by sequentially gating the FSC-A vs. SSC-A, and SSC-H vs. SSC-A. Mean fluorescence intensity (MFI) values for PE were calculated, and the data were plotted by GraphPad Prism software.
(In general: In flow cytometry, cells or beads pass a laser one at a time.)

In test [3] the target is T3, full-length human FcγRIIIa variant V/V expressed on CHO cells (human, UniProt P08637 17-254).
T3 construct: whole, on cells; also called human FcγRIIIa-CHO (variant V/V); human FcγRIIIa (V/V) CHO cells
Kind of test: flow cytometry, human FcγRIIIa (V/V) CHO cells, geomean of 2 experiments. As to the method:
The ability of anti-TIGIT×CD96 multispecific molecules to bind to variant V/V or variant F/F of human FcγRIIIa expressed on the surface of CHO cells was assessed. Briefly, CHO cells were transfected with a vector encoding full-length human FcγRIIIa (human FcγRIIIa-CHO) variant V/V or F/F, and clones stably expressing FcγRIIIa (variant V/V or variant F/F) were selected.
as §1, with “human FcγRIIIa-CHO (variant V/V or variant F/F)” for “human CD96-CHO”, “cells” for “cells (isoform 1 or isoform 2)”, “each multispecific molecule” for “each antibody”, “prepared.” for “prepared. Antibodies were serially diluted 1-to-3 in FACS buffer. A total of 11 working dilutions ranging from 60 μg/mL to 0.001 μg/mL were prepared. Fifty microlitres of each dilution were then transferred to the microplate containing human CD96-CHO cells. The cells were then incubated for 45 minutes at 4° C.”

T3 sequence (P08637 other isoform, or with tags, fused parts or gaps mutant limits assumed): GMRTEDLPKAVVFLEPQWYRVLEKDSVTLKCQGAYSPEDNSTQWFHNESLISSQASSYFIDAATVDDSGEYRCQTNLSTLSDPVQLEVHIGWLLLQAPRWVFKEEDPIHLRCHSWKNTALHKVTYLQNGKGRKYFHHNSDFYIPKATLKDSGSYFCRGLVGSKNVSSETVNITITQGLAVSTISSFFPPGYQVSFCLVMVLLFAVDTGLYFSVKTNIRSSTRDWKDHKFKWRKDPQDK

B1: anti-TIGIT×CD96 multispecific molecule BA123 (bispecific antibody, human IgG1, kappa, lambda)
heavy 1: QVQLVQSGAEVKKPGASVKVSCKASGYTFTSYGISWVRQAPGQGLEWMGWISAYNANTNYAQKLQGRVTMTTDTSTSTAYMELRSLRSDDTAVYYCARSAGVLGGMDVWGRGTLVTVSSASTKGPSVFPLAPSSKSTSGGTAALGCLVKDYFPEPVTVSWNSGALTSGVHTFPAVLQSSGLYSLSSVVTVPSSSLGTQTYICNVNHKPSNTKVDKRVEPKSCDKTHTCPPCPAPELLGGPDVFLFPPKPKDTLMISRTPEVTCVVVDVSHEDPEVKFNWYVDGVEVHNAKTKPREEQYNSTYRVVSVLTVLHQDWLNGKEYKCKVSNKALPAPIEKTISKAKGQPREPQVYTLPPSREEMTKNQVSLSCAVKGFYPSDIAVEWESNGQPENNYKTTPPVLDSDGSFFLVSKLTVDKSRWQQGNVFSCSVMHEALHNHYTQKSLSLSPG
light 1: not shown
heavy 2: EVQLVQSGAEVKKPGSSVKVSCKASGYTFASYGISWVRQAPGQGLEWMGGITPFFNRVDVAEKFQGRVTITADKSTSTAYIELSSLRSEDTAVYYCARDLRRGGVGDAFDIWGRGTLVTVSSASTKGPSVFPLAPSSKSTSGGTAALGCLVKDYFPEPVTVSWNSGALTSGVHTFPAVLQSSGLYSLSSVVTVPSSSLGTQTYICNVNHKPSNTKVDKRVEPKSCDKTHTCPPCPAPELLGGPDVFLFPPKPKDTLMISRTPEVTCVVVDVSHEDPEVKFNWYVDGVEVHNAKTKPREEQYNSTYRVVSVLTVLHQDWLNGKEYKCKVSNKALPLPEEKTISKAKGQPREPQVYTLPPSREEMTKNQVSLWCLVKGFYPSDIAVEWESNGQPENNYKTTPPVLDSDGSFFLYSKLTVDKSRWQQGNVFSCSVMHEALHNHYTQKSLSLSPG
light 2: QSALTQPRSVSGSPGQSVTISCTGTSPDVGSHAYRSWYQQHPGKAPKLMIYEVSYRPSGVSNRFSGSKSGNTASLTISGLQAEDEADYYCSSYPPSSATVFGAGTKLTVLGQPKAAPSVTLFPPSSEELQANKATLVCLISDFYPGAVTVAWKADSSPVKAGVETTTPSKQSNNKYAASSYLSLTPEQWKSHRSYSCQVTHEGSTVEKTVAPTEC
notes: copies: 1 + 1 + 1 + 1
On to B1, for which, in test [1], the dissociation constant (Kd) is 4.78 nM, the off-rate (koff) is 0.00132 s⁻¹ and the on-rate (kon) came out at 277000 M⁻¹ s⁻¹. The molecule also yielded an EC50 in test [2] of 0.0113 µg/mL. In test [3], this molecule displayed a 50% effective concentration (EC50) of 0.189 µg/mL.

B2: anti-TIGIT×CD96 multispecific molecule BA127 (bispecific antibody, human IgG1, kappa, lambda)
heavy 1: QVQLVQSGAEVKKPGASVKVSCKASGYTFTTYALHWVRQAPGQRLEWMGWINTGSGDTKYSQKFQGRVTITRDTSASTAYMELSSLRSEDTAVYYCARSLGVYYGMDVWGQGTLVTVSSASTKGPSVFPLAPSSKSTSGGTAALGCLVKDYFPEPVTVSWNSGALTSGVHTFPAVLQSSGLYSLSSVVTVPSSSLGTQTYICNVNHKPSNTKVDKRVEPKSCDKTHTCPPCPAPELLGGPDVFLFPPKPKDTLMISRTPEVTCVVVDVSHEDPEVKFNWYVDGVEVHNAKTKPREEQYNSTYRVVSVLTVLHQDWLNGKEYKCKVSNKALPAPIEKTISKAKGQPREPQVYTLPPSREEMTKNQVSLSCAVKGFYPSDIAVEWESNGQPENNYKTTPPVLDSDGSFFLVSKLTVDKSRWQQGNVFSCSVMHEALHNHYTQKSLSLSPG
light 1: not shown
heavy 2: EVQLVQSGAEVKKPGSSVKVSCKASGYTFASYGISWVRQAPGQGLEWMGGITPFFNRVDVAEKFQGRVTITADKSTSTAYIELSSLRSEDTAVYYCARDLRRGGVGDAFDIWGRGTLVTVSSASTKGPSVFPLAPSSKSTSGGTAALGCLVKDYFPEPVTVSWNSGALTSGVHTFPAVLQSSGLYSLSSVVTVPSSSLGTQTYICNVNHKPSNTKVDKRVEPKSCDKTHTCPPCPAPELLGGPDVFLFPPKPKDTLMISRTPEVTCVVVDVSHEDPEVKFNWYVDGVEVHNAKTKPREEQYNSTYRVVSVLTVLHQDWLNGKEYKCKVSNKALPLPEEKTISKAKGQPREPQVYTLPPSREEMTKNQVSLWCLVKGFYPSDIAVEWESNGQPENNYKTTPPVLDSDGSFFLYSKLTVDKSRWQQGNVFSCSVMHEALHNHYTQKSLSLSPG
light 2: QSALTQPRSVSGSPGQSVTISCTGTSPDVGSHAYRSWYQQHPGKAPKLMIYEVSYRPSGVSNRFSGSKSGNTASLTISGLQAEDEADYYCSSYPPSSATVFGAGTKLTVLGQPKAAPSVTLFPPSSEELQANKATLVCLISDFYPGAVTVAWKADSSPVKAGVETTTPSKQSNNKYAASSYLSLTPEQWKSHRSYSCQVTHEGSTVEKTVAPTEC
notes: Anti-CD96 arm = BA139, anti-TIGIT arm = BA150; copies: 1 + 1 + 1 + 1
In test [1], B2 displayed a Kd of 4.29 nM, an off-rate constant (koff) of 0.00126 s⁻¹ and a kon of 294000 M⁻¹ s⁻¹. The same molecule registered an EC50 in test [2] of 0.0489 µg/mL. The same molecule gave a half-maximal effective concentration (EC50) in test [3] of 0.148 µg/mL.

As a reminder, the Kd is the equilibrium constant for the complex coming apart. By koff is commonly meant the rate constant with which the complex falls apart. For orientation: kon means the second-order rate constant of association. For orientation: EC50 means the concentration needed to bring the measured effect to its halfway point.

Values taken from patent US20240141039A1 (AGENUS, published 2024).
